Where two headings read alike, the source gives them in different places.
Columns and labels:
Assay in all cases: ELISA
[1] = target: T1, human pro-EMAPII (human, UniProt Q12904 1-312)
T1 chain: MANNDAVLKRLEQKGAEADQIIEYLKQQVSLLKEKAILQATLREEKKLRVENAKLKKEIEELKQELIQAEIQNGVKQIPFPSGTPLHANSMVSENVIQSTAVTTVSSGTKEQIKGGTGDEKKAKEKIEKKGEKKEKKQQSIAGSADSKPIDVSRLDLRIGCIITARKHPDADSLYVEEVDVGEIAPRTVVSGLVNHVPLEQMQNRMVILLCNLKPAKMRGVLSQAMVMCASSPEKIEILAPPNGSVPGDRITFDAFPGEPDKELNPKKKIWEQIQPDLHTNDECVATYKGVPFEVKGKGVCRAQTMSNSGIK

[2] = target: T1, human pro-EMAPII
[3] = target: T1, human pro-EMAPII
[4] = target: T1, human pro-EMAPII

B1: Humanized HC5 + LC1 (antibody, V domains shown)
VH: AVQLVESGGGLVQPGGSLKLSCAASGFTFSDAAMYWVRQASGKGLEWVARIRTKPNNYATYYAASVKGRFTISRDDSNSTAYLQMNSLKTEDTAVYYCTSWSYDFDYWGQGTLVTVSS
VL: DIVMTQSPLSLPVTPGEPASISCRSSKSLLHSSGKTYLNWYLQKPGQSPQLLIYWMSNRASGVPDRFSGSGSGTDFTLKISRVEAEDVGVYYCQQFLEYPLTFGQGTKLEIKR
With B1 the EC50 [1] was 0.163 µg/mL.

B2: Humanized HC4 + LC1 (antibody, V domains shown)
VH: EVQLVESGGGLVQPGGSLKLSCAASGFTFSDAAIYWVRQASGKGLEWVARIRTKPNNYATYYAASVKGRFTISRDDSNSTAYLQMNSLKTEDTAVYYCTSWSYDFDYWGQGTLVTVSS
VL: DIVMTQSPLSLPVTPGEPASISCRSSKSLLHSSGKTYLNWYLQKPGQSPQLLIYWMSNRASGVPDRFSGSGSGTDFTLKISRVEAEDVGVYYCQQFLEYPLTFGQGTKLEIKR
In the case of B2, the EC50 [1] is reported as 0.198 µg/mL.

B3: Humanized HC1 + LC1 (antibody, V domains shown)
VH: EVQLVESGGGLVQPGGSLKLSCAASGFTFSDAAMYWVRQASGKGLEWVGRIRTKPNNYATYYAASVKGRFTISRDDSKNTAYLQMNSLKTEDTAVYYCTSWSYDFDYWGQGTLVTVSS
VL: DIVMTQSPLSLPVTPGEPASISCRSSKSLLHSSGKTYLNWYLQKPGQSPQLLIYWMSNRASGVPDRFSGSGSGTDFTLKISRVEAEDVGVYYCQQFLEYPLTFGQGTKLEIKR
For B3, the EC50 [1] was 0.098 µg/mL.

B4: Humanized HC5 + LC2 (antibody)
heavy: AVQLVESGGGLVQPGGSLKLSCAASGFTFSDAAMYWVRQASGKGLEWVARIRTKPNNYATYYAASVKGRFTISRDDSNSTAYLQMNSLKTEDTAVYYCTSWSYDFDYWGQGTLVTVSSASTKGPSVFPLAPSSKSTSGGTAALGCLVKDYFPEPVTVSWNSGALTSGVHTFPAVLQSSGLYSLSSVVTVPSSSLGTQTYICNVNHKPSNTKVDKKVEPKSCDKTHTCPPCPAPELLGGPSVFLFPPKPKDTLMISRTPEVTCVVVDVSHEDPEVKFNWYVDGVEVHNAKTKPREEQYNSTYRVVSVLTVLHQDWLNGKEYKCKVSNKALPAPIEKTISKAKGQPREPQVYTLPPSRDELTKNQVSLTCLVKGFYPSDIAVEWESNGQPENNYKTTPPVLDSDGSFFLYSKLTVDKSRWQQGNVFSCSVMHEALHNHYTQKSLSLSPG
light: DIVMTQSPLSLPVTPGEPASISCRSSKSLLHSSGKTYLNWYLQKPGQSPQLLIYWMSTRASGVPDRFSGSGSGTDFTLKISRVEAEDVGVYYCQQFLEYPLTFGQGTKLEIKRTVAAPSVFIFPPSDEQLKSGTASVVCLLNNFYPREAKVQWKVDNALQSGNSQESVTEQDSKDSTYSLSSTLTLSKADYEKHKVYACEVTHQGLSSPVTKSFNRGEC
Binder B4 has an EC50 [2] of 0.17 µg/mL.

B5: Humanized HC2 + LC2 (antibody)
heavy: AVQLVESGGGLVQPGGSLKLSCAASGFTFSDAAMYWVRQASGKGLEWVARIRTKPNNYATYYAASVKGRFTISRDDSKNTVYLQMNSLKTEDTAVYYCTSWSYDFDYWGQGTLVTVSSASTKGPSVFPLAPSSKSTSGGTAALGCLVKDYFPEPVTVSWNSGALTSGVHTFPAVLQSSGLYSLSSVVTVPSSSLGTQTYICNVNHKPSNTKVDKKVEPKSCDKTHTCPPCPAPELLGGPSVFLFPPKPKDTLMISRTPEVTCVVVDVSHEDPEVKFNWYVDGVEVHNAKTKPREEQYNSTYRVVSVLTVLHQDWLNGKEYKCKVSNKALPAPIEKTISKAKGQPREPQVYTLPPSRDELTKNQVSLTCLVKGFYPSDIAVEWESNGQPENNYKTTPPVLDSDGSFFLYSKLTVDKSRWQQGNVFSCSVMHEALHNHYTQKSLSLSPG
light: DIVMTQSPLSLPVTPGEPASISCRSSKSLLHSSGKTYLNWYLQKPGQSPQLLIYWMSTRASGVPDRFSGSGSGTDFTLKISRVEAEDVGVYYCQQFLEYPLTFGQGTKLEIKRTVAAPSVFIFPPSDEQLKSGTASVVCLLNNFYPREAKVQWKVDNALQSGNSQESVTEQDSKDSTYSLSSTLTLSKADYEKHKVYACEVTHQGLSSPVTKSFNRGEC
With B5 the EC50 [2] was 0.112 µg/mL.

B6: Humanized HC4 + LC4 (antibody)
heavy: not shown
light: DIQMTQSPLSLPVTPGEPASISCRSSKSLLHSSGKTYLNWYLQKPGQSPQLLIYWMSTRASGVPDRFSGSGSGTDFTLKISRVEAEDVGVYYCQQFLEYPLTFGGGTKVEIKRTVAAPSVFIFPPSDEQLKSGTASVVCLLNNFYPREAKVQWKVDNALQSGNSQESVTEQDSKDSTYSLSSTLTLSKADYEKHKVYACEVTHQGLSSPVTKSFNRGEC
B6 showed an EC50 [3] of 0.197 µg/mL.

B7: Humanized HC3 + LC4 (antibody)
heavy: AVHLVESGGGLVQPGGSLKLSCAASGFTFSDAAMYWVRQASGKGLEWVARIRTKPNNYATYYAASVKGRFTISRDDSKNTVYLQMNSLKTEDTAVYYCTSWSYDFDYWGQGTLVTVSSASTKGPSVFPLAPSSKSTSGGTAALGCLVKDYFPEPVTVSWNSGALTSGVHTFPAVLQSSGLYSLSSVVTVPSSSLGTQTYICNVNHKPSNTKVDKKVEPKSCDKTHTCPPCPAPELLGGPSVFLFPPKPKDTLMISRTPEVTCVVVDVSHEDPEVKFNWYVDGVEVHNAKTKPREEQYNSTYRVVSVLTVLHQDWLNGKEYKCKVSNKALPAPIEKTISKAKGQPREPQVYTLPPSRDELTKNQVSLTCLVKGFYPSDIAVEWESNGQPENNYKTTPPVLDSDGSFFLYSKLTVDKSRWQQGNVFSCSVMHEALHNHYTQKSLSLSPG
light: DIQMTQSPLSLPVTPGEPASISCRSSKSLLHSSGKTYLNWYLQKPGQSPQLLIYWMSTRASGVPDRFSGSGSGTDFTLKISRVEAEDVGVYYCQQFLEYPLTFGGGTKVEIKRTVAAPSVFIFPPSDEQLKSGTASVVCLLNNFYPREAKVQWKVDNALQSGNSQESVTEQDSKDSTYSLSSTLTLSKADYEKHKVYACEVTHQGLSSPVTKSFNRGEC
Binder B7 has an EC50 [3] of 0.07 µg/mL.

B8: Humanized HC5 + LC3 (antibody)
heavy: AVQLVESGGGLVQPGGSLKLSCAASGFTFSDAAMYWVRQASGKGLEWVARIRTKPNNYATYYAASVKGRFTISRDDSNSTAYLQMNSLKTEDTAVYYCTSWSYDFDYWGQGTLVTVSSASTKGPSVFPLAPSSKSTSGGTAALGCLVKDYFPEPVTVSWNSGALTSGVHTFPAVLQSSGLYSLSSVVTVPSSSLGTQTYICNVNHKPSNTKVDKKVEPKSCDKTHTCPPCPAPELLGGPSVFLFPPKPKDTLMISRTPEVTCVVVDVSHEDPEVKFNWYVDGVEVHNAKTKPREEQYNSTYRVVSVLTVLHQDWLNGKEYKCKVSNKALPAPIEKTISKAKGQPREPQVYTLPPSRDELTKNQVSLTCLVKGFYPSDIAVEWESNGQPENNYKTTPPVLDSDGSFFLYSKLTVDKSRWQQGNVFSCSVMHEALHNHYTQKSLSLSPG
light: DIVMTQSPLSLPVTPGEPASISCRSSKSLLHSSGKTYLNWYLQKPGQSPQLLIYWMSTRASGVPDRFSGSGSGTDFTLKISRVEAEDVGVYYCQQFLEYPLTFGGGTKVEIKRTVAAPSVFIFPPSDEQLKSGTASVVCLLNNFYPREAKVQWKVDNALQSGNSQESVTEQDSKDSTYSLSSTLTLSKADYEKHKVYACEVTHQGLSSPVTKSFNRGEC
Binder B8 has an EC50 [4] of 0.2 µg/mL.

B9: Humanized HC2 + LC4 (antibody)
heavy: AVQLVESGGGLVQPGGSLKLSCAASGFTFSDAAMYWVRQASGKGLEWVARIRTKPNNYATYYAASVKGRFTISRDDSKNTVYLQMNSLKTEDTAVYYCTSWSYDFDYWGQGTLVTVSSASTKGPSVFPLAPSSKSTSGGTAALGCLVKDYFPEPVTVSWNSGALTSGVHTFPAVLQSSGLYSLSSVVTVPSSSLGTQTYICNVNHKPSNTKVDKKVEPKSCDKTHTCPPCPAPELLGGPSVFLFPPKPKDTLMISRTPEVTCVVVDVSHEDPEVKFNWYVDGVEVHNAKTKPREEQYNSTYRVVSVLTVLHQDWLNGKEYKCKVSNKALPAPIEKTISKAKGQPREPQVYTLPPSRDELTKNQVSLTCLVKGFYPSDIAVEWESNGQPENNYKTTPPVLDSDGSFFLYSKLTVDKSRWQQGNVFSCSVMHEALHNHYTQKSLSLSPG
light: DIQMTQSPLSLPVTPGEPASISCRSSKSLLHSSGKTYLNWYLQKPGQSPQLLIYWMSTRASGVPDRFSGSGSGTDFTLKISRVEAEDVGVYYCQQFLEYPLTFGGGTKVEIKRTVAAPSVFIFPPSDEQLKSGTASVVCLLNNFYPREAKVQWKVDNALQSGNSQESVTEQDSKDSTYSLSSTLTLSKADYEKHKVYACEVTHQGLSSPVTKSFNRGEC
B9 was tested, and the EC50 [3] was 0.078 µg/mL.

B10: Humanized HC2 + LC3 (antibody)
heavy: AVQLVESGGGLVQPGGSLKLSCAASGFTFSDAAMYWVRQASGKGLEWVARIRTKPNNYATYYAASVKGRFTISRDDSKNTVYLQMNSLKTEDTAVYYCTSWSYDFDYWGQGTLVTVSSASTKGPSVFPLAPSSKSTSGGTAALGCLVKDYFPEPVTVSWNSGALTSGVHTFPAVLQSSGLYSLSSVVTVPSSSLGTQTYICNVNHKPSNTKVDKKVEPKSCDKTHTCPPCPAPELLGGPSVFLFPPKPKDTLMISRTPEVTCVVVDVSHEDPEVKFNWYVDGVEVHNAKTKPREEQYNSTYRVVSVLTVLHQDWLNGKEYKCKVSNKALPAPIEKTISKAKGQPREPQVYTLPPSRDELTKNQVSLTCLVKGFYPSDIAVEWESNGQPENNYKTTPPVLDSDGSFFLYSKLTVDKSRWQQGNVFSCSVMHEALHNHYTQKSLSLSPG
light: DIVMTQSPLSLPVTPGEPASISCRSSKSLLHSSGKTYLNWYLQKPGQSPQLLIYWMSTRASGVPDRFSGSGSGTDFTLKISRVEAEDVGVYYCQQFLEYPLTFGGGTKVEIKRTVAAPSVFIFPPSDEQLKSGTASVVCLLNNFYPREAKVQWKVDNALQSGNSQESVTEQDSKDSTYSLSSTLTLSKADYEKHKVYACEVTHQGLSSPVTKSFNRGEC
B10 showed an EC50 [4] of 0.075 µg/mL.

B11: Humanized HC1 + LC2 (antibody)
heavy: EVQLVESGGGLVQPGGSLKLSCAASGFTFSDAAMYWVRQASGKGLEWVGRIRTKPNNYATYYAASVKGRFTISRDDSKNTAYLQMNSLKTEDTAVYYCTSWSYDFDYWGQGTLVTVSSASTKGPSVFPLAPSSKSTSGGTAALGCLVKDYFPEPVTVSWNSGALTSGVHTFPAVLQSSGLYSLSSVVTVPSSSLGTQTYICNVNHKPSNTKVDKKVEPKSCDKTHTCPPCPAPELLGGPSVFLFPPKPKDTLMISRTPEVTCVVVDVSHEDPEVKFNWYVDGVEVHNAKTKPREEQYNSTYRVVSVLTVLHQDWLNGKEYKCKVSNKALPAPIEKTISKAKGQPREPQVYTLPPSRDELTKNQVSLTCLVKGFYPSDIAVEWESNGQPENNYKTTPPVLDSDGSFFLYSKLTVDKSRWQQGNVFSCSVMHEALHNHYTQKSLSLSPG
light: DIVMTQSPLSLPVTPGEPASISCRSSKSLLHSSGKTYLNWYLQKPGQSPQLLIYWMSTRASGVPDRFSGSGSGTDFTLKISRVEAEDVGVYYCQQFLEYPLTFGQGTKLEIKRTVAAPSVFIFPPSDEQLKSGTASVVCLLNNFYPREAKVQWKVDNALQSGNSQESVTEQDSKDSTYSLSSTLTLSKADYEKHKVYACEVTHQGLSSPVTKSFNRGEC
B11 showed an EC50 [2] of 0.089 µg/mL.

B12: Humanized HC3 + LC1 (antibody)
heavy: not shown
light: DIVMTQSPLSLPVTPGEPASISCRSSKSLLHSSGKTYLNWYLQKPGQSPQLLIYWMSNRASGVPDRFSGSGSGTDFTLKISRVEAEDVGVYYCQQFLEYPLTFGQGTKLEIKRTVAAPSVFIFPPSDEQLKSGTASVVCLLNNFYPREAKVQWKVDNALQSGNSQESVTEQDSKDSTYSLSSTLTLSKADYEKHKVYACEVTHQGLSSPVTKSFNRGEC
B12 gave an EC50 [1] of 0.082 µg/mL.

B13: Humanized HC4 + LC3 (antibody)
heavy: not shown
light: DIVMTQSPLSLPVTPGEPASISCRSSKSLLHSSGKTYLNWYLQKPGQSPQLLIYWMSTRASGVPDRFSGSGSGTDFTLKISRVEAEDVGVYYCQQFLEYPLTFGGGTKVEIKRTVAAPSVFIFPPSDEQLKSGTASVVCLLNNFYPREAKVQWKVDNALQSGNSQESVTEQDSKDSTYSLSSTLTLSKADYEKHKVYACEVTHQGLSSPVTKSFNRGEC
Binder B13 has an EC50 [4] of 0.229 µg/mL.

B14: Humanized HC1 + LC3 (antibody)
heavy: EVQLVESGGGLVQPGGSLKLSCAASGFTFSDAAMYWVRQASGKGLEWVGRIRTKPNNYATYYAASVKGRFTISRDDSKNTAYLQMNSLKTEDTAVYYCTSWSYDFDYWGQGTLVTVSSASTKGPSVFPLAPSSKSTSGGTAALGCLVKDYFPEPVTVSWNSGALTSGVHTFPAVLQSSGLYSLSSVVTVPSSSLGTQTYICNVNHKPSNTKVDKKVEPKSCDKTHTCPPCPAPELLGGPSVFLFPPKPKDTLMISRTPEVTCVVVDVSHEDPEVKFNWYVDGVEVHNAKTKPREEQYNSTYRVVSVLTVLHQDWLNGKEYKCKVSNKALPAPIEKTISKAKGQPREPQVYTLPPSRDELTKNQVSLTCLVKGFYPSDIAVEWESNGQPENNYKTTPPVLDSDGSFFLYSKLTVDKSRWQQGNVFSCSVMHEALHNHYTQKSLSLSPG
light: DIVMTQSPLSLPVTPGEPASISCRSSKSLLHSSGKTYLNWYLQKPGQSPQLLIYWMSTRASGVPDRFSGSGSGTDFTLKISRVEAEDVGVYYCQQFLEYPLTFGGGTKVEIKRTVAAPSVFIFPPSDEQLKSGTASVVCLLNNFYPREAKVQWKVDNALQSGNSQESVTEQDSKDSTYSLSSTLTLSKADYEKHKVYACEVTHQGLSSPVTKSFNRGEC
B14 was tested, and the EC50 [4] was 0.108 µg/mL.

B15: Humanized HC5 + LC4 (antibody)
heavy: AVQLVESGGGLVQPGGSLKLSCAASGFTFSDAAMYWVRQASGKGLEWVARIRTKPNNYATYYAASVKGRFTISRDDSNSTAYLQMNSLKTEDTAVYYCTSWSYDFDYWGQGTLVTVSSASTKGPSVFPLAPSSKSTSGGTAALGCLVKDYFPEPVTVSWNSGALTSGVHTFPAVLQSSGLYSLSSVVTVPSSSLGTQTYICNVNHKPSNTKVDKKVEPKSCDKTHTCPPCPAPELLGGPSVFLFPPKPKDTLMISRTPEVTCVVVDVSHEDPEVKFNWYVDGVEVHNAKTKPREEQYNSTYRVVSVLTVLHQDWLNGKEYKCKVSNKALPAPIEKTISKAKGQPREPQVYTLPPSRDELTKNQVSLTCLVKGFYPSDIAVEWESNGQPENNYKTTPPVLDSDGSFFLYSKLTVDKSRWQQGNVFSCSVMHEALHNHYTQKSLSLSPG
light: DIQMTQSPLSLPVTPGEPASISCRSSKSLLHSSGKTYLNWYLQKPGQSPQLLIYWMSTRASGVPDRFSGSGSGTDFTLKISRVEAEDVGVYYCQQFLEYPLTFGGGTKVEIKRTVAAPSVFIFPPSDEQLKSGTASVVCLLNNFYPREAKVQWKVDNALQSGNSQESVTEQDSKDSTYSLSSTLTLSKADYEKHKVYACEVTHQGLSSPVTKSFNRGEC
For B15, the EC50 [3] was 0.166 µg/mL.

B16: Humanized HC2 + LC1 (antibody)
heavy: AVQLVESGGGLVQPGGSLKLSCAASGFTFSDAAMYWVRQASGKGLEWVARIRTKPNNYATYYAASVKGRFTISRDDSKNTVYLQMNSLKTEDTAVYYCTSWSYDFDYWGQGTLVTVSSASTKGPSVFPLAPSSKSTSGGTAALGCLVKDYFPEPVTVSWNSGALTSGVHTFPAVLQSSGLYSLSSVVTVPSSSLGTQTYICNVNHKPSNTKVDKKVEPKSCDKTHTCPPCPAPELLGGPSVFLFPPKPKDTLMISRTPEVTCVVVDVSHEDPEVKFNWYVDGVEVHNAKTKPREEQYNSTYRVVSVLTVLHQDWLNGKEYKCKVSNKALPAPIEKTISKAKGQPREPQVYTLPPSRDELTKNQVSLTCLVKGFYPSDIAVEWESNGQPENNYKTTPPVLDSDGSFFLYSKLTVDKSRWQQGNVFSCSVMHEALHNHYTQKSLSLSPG
light: DIVMTQSPLSLPVTPGEPASISCRSSKSLLHSSGKTYLNWYLQKPGQSPQLLIYWMSNRASGVPDRFSGSGSGTDFTLKISRVEAEDVGVYYCQQFLEYPLTFGQGTKLEIKRTVAAPSVFIFPPSDEQLKSGTASVVCLLNNFYPREAKVQWKVDNALQSGNSQESVTEQDSKDSTYSLSSTLTLSKADYEKHKVYACEVTHQGLSSPVTKSFNRGEC
B16 was tested, and the EC50 [1] was 0.076 µg/mL.

B17: Humanized HC3 + LC2 (antibody)
heavy: not shown
light: DIVMTQSPLSLPVTPGEPASISCRSSKSLLHSSGKTYLNWYLQKPGQSPQLLIYWMSTRASGVPDRFSGSGSGTDFTLKISRVEAEDVGVYYCQQFLEYPLTFGQGTKLEIKRTVAAPSVFIFPPSDEQLKSGTASVVCLLNNFYPREAKVQWKVDNALQSGNSQESVTEQDSKDSTYSLSSTLTLSKADYEKHKVYACEVTHQGLSSPVTKSFNRGEC
B17 was tested, and the EC50 [2] was 0.081 µg/mL.

B18: Humanized HC1 + LC4 (antibody)
heavy: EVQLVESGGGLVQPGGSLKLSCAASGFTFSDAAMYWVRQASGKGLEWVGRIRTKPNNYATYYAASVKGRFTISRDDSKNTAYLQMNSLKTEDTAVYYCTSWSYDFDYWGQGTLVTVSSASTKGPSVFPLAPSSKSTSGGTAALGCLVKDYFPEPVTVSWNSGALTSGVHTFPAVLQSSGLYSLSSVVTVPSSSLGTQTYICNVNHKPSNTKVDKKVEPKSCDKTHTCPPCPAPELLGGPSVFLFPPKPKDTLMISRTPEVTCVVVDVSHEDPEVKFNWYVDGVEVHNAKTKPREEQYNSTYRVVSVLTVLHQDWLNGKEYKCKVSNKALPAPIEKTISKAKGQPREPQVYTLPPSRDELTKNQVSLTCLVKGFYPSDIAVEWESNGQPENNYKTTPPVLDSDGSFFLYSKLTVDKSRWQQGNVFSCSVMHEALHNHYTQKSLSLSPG
light: DIQMTQSPLSLPVTPGEPASISCRSSKSLLHSSGKTYLNWYLQKPGQSPQLLIYWMSTRASGVPDRFSGSGSGTDFTLKISRVEAEDVGVYYCQQFLEYPLTFGGGTKVEIKRTVAAPSVFIFPPSDEQLKSGTASVVCLLNNFYPREAKVQWKVDNALQSGNSQESVTEQDSKDSTYSLSSTLTLSKADYEKHKVYACEVTHQGLSSPVTKSFNRGEC
B18 gave an EC50 [3] of 0.113 µg/mL.

B19: Humanized HC3 + LC3 (antibody)
heavy: not shown
light: DIVMTQSPLSLPVTPGEPASISCRSSKSLLHSSGKTYLNWYLQKPGQSPQLLIYWMSTRASGVPDRFSGSGSGTDFTLKISRVEAEDVGVYYCQQFLEYPLTFGGGTKVEIKRTVAAPSVFIFPPSDEQLKSGTASVVCLLNNFYPREAKVQWKVDNALQSGNSQESVTEQDSKDSTYSLSSTLTLSKADYEKHKVYACEVTHQGLSSPVTKSFNRGEC
B19 was tested, and the EC50 [4] was 0.077 µg/mL.

B20: Humanized HC4 + LC2 (antibody)
heavy: not shown
light: DIVMTQSPLSLPVTPGEPASISCRSSKSLLHSSGKTYLNWYLQKPGQSPQLLIYWMSTRASGVPDRFSGSGSGTDFTLKISRVEAEDVGVYYCQQFLEYPLTFGQGTKLEIKRTVAAPSVFIFPPSDEQLKSGTASVVCLLNNFYPREAKVQWKVDNALQSGNSQESVTEQDSKDSTYSLSSTLTLSKADYEKHKVYACEVTHQGLSSPVTKSFNRGEC
B20 gave an EC50 [2] of 0.271 µg/mL.

From patent publication US20230287095A1 (published 2023)
